Measurements published in the supplement of paper PMC10724198.
± gives the standard deviation of the averaged measurements.

Assays:
Saccharomyces cerevisiae [1] = assay: protein stability index of tFT-peptide fusion (C-terminal peptide) (PSI (0-1 scale)); higher = more stable (slower turnover)
Procedure: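 MPS profiling in S. cerevisiae of the tFT-X12 degron library: putative degron peptides plus stable controls, 12 aa, fused to the C-terminus of a sfGFP-mCherry timer. Cells are FACS-sorted into 8 mCherry/sfGFP bins and deep-sequenced. PSI runs from 0 (unstable) to 1 (stable). Backgrounds are wild type, das1Δ and doa10Δ at 30 °C, and wild type, das1Δ, cdc34-1 and cdc53-1 at 37 °C; 2-3 technical replicates each.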

Saccharomyces cerevisiae [2] = assay: as above; conditions: genetic background: wild type; temperature: 30 C
[3] = genetic background: cdc34-1, temperature: 37 C
[4] = genetic background: cdc53-1, temperature: 37 C
[5] = genetic background: das1 deletion, temperature: 30 C
[6] = genetic background: das1 deletion, temperature: 37 C
[7] = genetic background: doa10 deletion, temperature: 30 C
[8] = genetic background: wild type, temperature: 30 C
[9] = genetic background: wild type, temperature: 37 C
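Also: PSI is a weighted mean of sequencing reads over stability bins, variants kept only with over 10 reads, mCherry proximal and sfGFP distal, peptide attached via GGGS linker.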

Sequence	protein stability index (Saccharomyces cerevisiae [2])	also measured
LIVFSGFLFLLS	–	protein stability index (Saccharomyces cerevisiae [1]; [3]): 0.442 ± 0.01; protein stability index (Saccharomyces cerevisiae [1]; [4]): 0.53 ± 0.049; protein stability index (Saccharomyces cerevisiae [1]; [5]): 0.373 ± 0.031; protein stability index (Saccharomyces cerevisiae [1]; [6]): 0.5639 ± 0.0056; protein stability index (Saccharomyces cerevisiae [1]; [7]): 0.3758 ± 0.0014; protein stability index (Saccharomyces cerevisiae [1]; [8]): 0.364 ± 0.023; protein stability index (Saccharomyces cerevisiae [1]; [9]): 0.5096 ± 0.0027
VLICFSVFSWVV	–	protein stability index (Saccharomyces cerevisiae [1]; [3]): 0.0264 ± 0.00023; protein stability index (Saccharomyces cerevisiae [1]; [4]): 0.0313 ± 0.00079; protein stability index (Saccharomyces cerevisiae [1]; [5]): 0.0368 ± 0.01; protein stability index (Saccharomyces cerevisiae [1]; [6]): 0.0531 ± 0.0097; protein stability index (Saccharomyces cerevisiae [1]; [7]): 0.0228 ± 0.0066; protein stability index (Saccharomyces cerevisiae [1]; [8]): 0.0178 ± 0.0049; protein stability index (Saccharomyces cerevisiae [1]; [9]): 0.0371 ± 0.0086
PVPERTSATEPP	–	protein stability index (Saccharomyces cerevisiae [1]; [3]): 0.61 ± 0.052; protein stability index (Saccharomyces cerevisiae [1]; [4]): 0.667 ± 0.029; protein stability index (Saccharomyces cerevisiae [1]; [5]): 0.617 ± 0.038; protein stability index (Saccharomyces cerevisiae [1]; [6]): 0.6671 ± 0.006; protein stability index (Saccharomyces cerevisiae [1]; [7]): 0.634 ± 0.0083; protein stability index (Saccharomyces cerevisiae [1]; [8]): 0.627 ± 0.019; protein stability index (Saccharomyces cerevisiae [1]; [9]): 0.655 ± 0.0013
GGGGGGRWGRLC	–	protein stability index (Saccharomyces cerevisiae [1]; [3]): 0.634 ± 0.047; protein stability index (Saccharomyces cerevisiae [1]; [4]): 0.752 ± 0.031; protein stability index (Saccharomyces cerevisiae [1]; [5]): 0.66 ± 0.019; protein stability index (Saccharomyces cerevisiae [1]; [6]): 0.7572 ± 0.0018; protein stability index (Saccharomyces cerevisiae [1]; [7]): 0.189 ± 0.0036; protein stability index (Saccharomyces cerevisiae [1]; [8]): 0.232 ± 0.018; protein stability index (Saccharomyces cerevisiae [1]; [9]): 0.478 ± 0.0099
YQFAALRFTFPL	0.647 ± 0.044	–
PLFPGLARLSSS	0.703 ± 0.031	–
VFGRGGRGGPLG	0.647 ± 0.049	–
GCCCVMNQLRRR	0.777 ± 0.088	–
FLFGLGEIDGVR	0.84 ± 0.034	–
NPFCPILPFALL	0.853 ± 0.069	–
GEFSINDGSGWT	0.7106 ± 0.0045	–
RTSKRKKSDARK	0.784 ± 0.022	–
IRYARSYDMSEC	0.654 ± 0.04	–
RSSEVQADRMCQ	0.668 ± 0.025	–
GEAVGRWSECRS	0.664 ± 0.0091	–
PAWVEARWLCRG	0.764 ± 0.069	–
EKKNKKRNKKNK	0.697 ± 0.058	–
PPHCPLVLPSLS	0.67 ± 0.044	–
PFPFLPSPIFPQ	0.749 ± 0.057	–

Sequence	protein stability index (Saccharomyces cerevisiae [2])	also measured
RSRKKKERWKTE	0.707 ± 0.015	–
PTVGGGLDGVGR	0.669 ± 0.063	–
VVGRGGLICGRW	0.625 ± 0.072	–
GGGGGCGRAGGG	0.714 ± 0.053	–
GGAMLMLAVEGV	0.609 ± 0.044	–
LIPLPPPPLPPP	0.623 ± 0.09	–
DGCRFEFVPSGD	0.629 ± 0.023	–
PPLTVRPFPFRV	0.662 ± 0.015	–
SYLTQNGYAFRQ	0.644 ± 0.082	–
PDVFIWIRPLLP	0.6282 ± 0.0062	–
RSFGRVVSCSGC	0.6993 ± 0.0056	–
PPPPPRPPPSSP	0.746 ± 0.058	–
PPPPNPPRPSSR	0.758 ± 0.026	–
PPSLPHLCRLHL	0.668 ± 0.057	–
GVGGGISGGRWG	0.666 ± 0.088	–
VCAASAGGARAG	0.6213 ± 0.0025	–
PPVLAVRTSLDA	0.636 ± 0.021	–
QGPPPTPASHGP	0.672 ± 0.026	–
PSASRILSPPLP	0.649 ± 0.016	–
